Measurements published in patent US20110250203A1 (SYMPHOGEN A S, published 2011).

T1: Recombinant human CD5 extracellular domain (CD5-ECD) (human, UniProt P06127 25-372)
T1 construct: In-house protein made as CD5-ECD - TEV site - hGH fusion; CD5-ECD isolated by TEV cleavage and nickel column; also called CD5-ECD protein
T1 sequence: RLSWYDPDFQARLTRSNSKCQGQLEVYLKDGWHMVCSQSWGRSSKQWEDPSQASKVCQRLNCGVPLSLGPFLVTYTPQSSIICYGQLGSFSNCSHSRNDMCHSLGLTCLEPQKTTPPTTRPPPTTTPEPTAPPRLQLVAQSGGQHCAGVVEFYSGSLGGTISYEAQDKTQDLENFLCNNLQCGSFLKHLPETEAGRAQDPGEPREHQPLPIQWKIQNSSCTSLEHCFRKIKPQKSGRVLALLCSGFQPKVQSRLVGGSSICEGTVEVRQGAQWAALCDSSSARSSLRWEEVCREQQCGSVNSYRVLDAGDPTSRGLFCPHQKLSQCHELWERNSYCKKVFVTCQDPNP


target: T1, Recombinant human CD5 extracellular …; assay: SPR (Biacore 2000), antibody captured by anti-human Fc, CD5-ECD in solution, 1:1 fit;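 note: CM5 chip, binding curves at four CD5-ECD concentrations fitted globally, with the signal of a non-CD5-binding control antibody subtracted as reference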
Method: SPR analysis was performed on a Biacore 2000 machine containing four flow cells. A CM5 Biacore chip was conjugated with 8.000 Resonance units (Ru) polyclonal anti-human IgG Fc-specific antibody to flow cells 1-4 according to the manufacturer's instructions. Each anti-CD5 antibody was determined for binding to four different concentrations of CD5-ECD (concentrations for the four cycles are shown below) before the affinity was calculated. The non-CD5 binding antibody, Erbitux served as a negative control and was subtracted from the values obtained with the anti-CD5 specific antibodies. […] Subsequently, all flow cells were washed and after waiting 500 s, 250 μl of CD5-ECD 100 nM or 200 nM (Cycle 1) was injected in Flow cells 1-4. After waiting 1000 s, 30 μl H3PO4 was injected using a flow rate of 60 μl/min. The antibody/antigen complex was then stripped with a low pH acid wash (30 sec. contact time with 100 mM H3PO4). […] Four new cycles were then repeated until all the anti-CD5 antibody clones were tested for binding to CD5 in four different concentrations. The association rate constant (ka) and dissociation constant (kd) were evaluated globally by fitting the four binding curves to predefined 1:1 (Langmuir) association and dissociation models with BIAevaluation 4.1 software (Biacore), Table 13.

Row | Binder | Kd [nM] | koff [s⁻¹] | kon [M⁻¹ s⁻¹]
1 | Anti-CD5 antibody 1 (1D8) (antibody, human IgG1, V domains shown, also called Ab1; Clone 1) VH: EVQLQESGPELVKPEASVKISCKASGYSFTGYTMNWVKQSHGKNLEWIGLINPYNGGTTYNQKFKGKATLTVDTSSSTAFMELLSLTSEDSAVYYCARDYYGSSPDFDY VL: DIVLTQSTSSLSASLGDRVTINCSASQGISNHLNWFQQKSDGTVKLLIYFTSSLHSGVPSRFSGSGSGTDYSLTISNLEPEDIAAYYCQQYSNLPYT | 5.19 | 0.000557 | 107000
2 | Anti-CD5 antibody 8 (8G8) (antibody, human IgG1, V domains shown, also called Ab8; Clone 8) VH: QVQLKESGPELEKPGASVRISCKASGYSFTAYNINWVTQRDGKSLEWIGSIDPYYGDTKYNQKFKDKATLTVDKSSSTAHMQVKSLTSEDSAIYYCARRMITMGDWYFDV VL: EIVLTQSPSSLSASLGDRVTISCRASQDISNYLNWYQRKPDGTVKLLIYYTSRLQSGVPSRFSGSGSGSEYSLTISNLDQEDIATYFCQQGDALPWT | 0.37 | 9.81e-06 | 26500
3 | Anti-CD5 antibody 9 (6M4) (antibody, human IgG1, V domains shown, also called Ab9; Clone 9) VH: QVQLKESGPELEKPGASVKISCKASGYSFTAYSMNWVKQNNGMSLEWIGSIDPYYGDTKYAQKFKGKATLTVDKASSTAYLQLKSLTSEDSAVYYCARRMITTGDWYFDV VL: HIVLTQSPSSLSASLGDRVTISCRASQDISTYLNWYQQKPDGTVKLLIFYTSRLHAGVPSRFSGSGSGTHHSLTISNLEQEDIATYFCQQGNSLPFT | 4.35 | 6.17e-05 | 14200
4 | Anti-CD5 antibody 23 (2H11) (antibody, V domains shown, also called Ab23; Clone 23) VH: EVQLQQSGPELVKPGTSVKISCKASGYTFTDYYINWVKQKPGQGLEWIGWIYPGGGNTRYIERFKGKATLTVDTSSSTAYMQLSSLTSEDTAVYFCARNGYWYFDV VL: DIVLTQSPSSLTVTAGEKVTMSCKSSQSLLNQKNYLTWYQQKTGQPPKLLIYWASTRESGVPDRFTGSGSGTDFTLTISSVQAEDLAVYYCQNDYDYPYT | 4.79 | 0.000105 | 21900
5 | Anti-CD5 antibody 34 (5O24) (antibody, human IgG1, V domains shown, also called Ab34; Clone 34) VH: EVKLVESGAELVRSGASVKLSCAASGFNIKDYYIHWVKQRPEQGLEWIGWIDPENGRTEYAPKFQGKATMTADTSSNTAYLQLSSLTSEDTAVYYCNNGNYVRHYYFDY VL: DVVLTQSPAILSASPGEKVTMTCRAISSVSYMHWYQQKPGSSPKPWIYATSNLASGVPARFSGSGSGTSYSLTISRVEAEDAATYYCQQWSSNPRT | 61.3 | 0.00084 | 13700
6 | Anti-CD5 antibody 18 (1E7) (antibody, human IgG1, V domains shown, also called Ab18; Clone 18) VH: QVQLKESGGGLVQPGGSLKLSCAASGFTFSNYGMSWVRQIPDKRLELVAAINSNGDITYDPDSVKGRFTISRDNANNSLFLQMRSLKSEDTAMYYCARGTAWFTYWGQGTLVT VL: DIVLTQSPASLSASVGETVIITCRASENIYSYLVWYQQKQGKSPQLLVYNAKTLAEGVPSRFSGSGSGTQFSLKINSLQSEDFGSYSCQHHYGYPYT | 0.205 | 3.27e-05 | 160000
7 | Anti-CD5 antibody 11 (4E24) (antibody, human IgG1, V domains shown, also called Ab11; Clone 11) VH: EVQLKESGAELVRPGGSVKISCKGSGYTFTNFAIHWVKQSHIKTLEWIGLISTSSGDVSYNQKFKDKATMTVDKSSSTAYMELARLTSEDSAIYYCARHYGANNYFDY VL: EIVLTQSPTIMSASPGEQVTMTCRTNSSVSSSYLHWYQQKSGASPKLWIYGTSNLASGVPTRFSGSGSGTSYSLTISSVEAGDAATYFCQQYSGYPLT | 0.315 | 2.2e-05 | 69900
8 | Anti-CD5 antibody 12 (4F10) (antibody, human IgG1, V domains shown, also called Ab12; Clone 12) VH: EVQLQESGAELVRPGVSVKISCKGSGYTFTNFAIHWVKQSHAKSLEWIGLISSNSGDVSYNQKFKGKATMTVDKSSSTAYMELARLTSEDSAIYYCARHYGAHNYFDY VL: DIVLTQSPAIMSASPGEQVTMTCRATSSISSSYLHWYQQKSGASPKLWIYGTSNLASGVPTRFSGSGSGTSYSLTISSVEAEDAATYYCQQYSDYPLT | 1.18 | 0.000115 | 97000
9 | Anti-CD5 antibody 14 (7P9) (antibody, human IgG1, V domains shown, also called Ab14; Clone 14) VH: EVQLKESGAELVKPGASVKLSCTASGFNIKDTYMHWVKQRPEQGLEWIGRIDPANGNTKYDPKFQGKATITADTSSNTAYLQLSSLTSEDTAVYYCAREENYYGTYYFDY VL: NIVLTQSPASLAASVGETVTITCRASENIYYNLAWYQQKQGKSPQLLIYNANSLEDGVPSRFSGSGSGTQYSMKINSMQPEDTATYFCKQVYDVPFT | 5.6 | 0.0018 | 321000
10 | Anti-CD5 antibody 29 (8E15) (antibody, human IgG1, V domains shown, also called Ab29; Clone 29) VH: QVQLKESGADLVKPGASVKLSCTASGFNIKDTYMNWVKERPEQGLEWIGRIDPANGNTKYDPKFQGKATITADTSSNTGYLQLSSLTSEDTAVYYCASYDPDY VL: DIVLTQSPASLAASVGETVTITCRASENIYYNLAWYQQKQGKSPQLLIYNANSLEGGVPSRFSGSGSGTQYSMKINSMQPEDTATYFCKQAYDVPWT | 2.09 | 0.00137 | 655000
11 | Anti-CD5 antibody 31 (3P16) (antibody, human IgG1, V domains shown, also called Ab31; Clone 31) VH: EVQLKESGPELKKPGETVKISCMTSGYMFTNHGMNWVKQAPGKGLKWMGWINTYTGEPTYGDGFKGRFVFSLETSASTAYLQINNLKNEDTATYFCARRVATYFDV VL: NIVLTQSPAILSVSPGERVSFSCRASQRIGTSMNWYQQRTNGSPRLLIKSASESISGIPSRFSGSGSGTDFTLSINSVESDDVADYYCQQSNSWPLT | 8.85 | 0.000803 | 90700
12 | Anti-CD5 antibody 32 (4F3) (antibody, human IgG1, V domains shown, also called Ab32; Clone 32) VH: EVKLVESGPELKKPGETVKISCKASGYMFTNYGMNWVKQAPGKGLKWMGWINTYTGEPTYVEDFKGRFAFSLETSANTAYLQINNLKNEDTATYFCTRRSHITLDY VL: DIVLTQSPVILSVSPGERVSLSCRASQSIGTSINWYQQRTDGSPRLLIKSASESMSGIPSRFSGSGSGTDFTLSITSVESEDIADYYCQQSNSWPLT | 0.903 | 0.000116 | 128000
13 | Anti-CD5 antibody 15 (8E24) (antibody, human IgG1, V domains shown, also called Ab15; Clone 15) VH: QVTLKESGAELVRPGASVKLSCKASGYSFTSYWMNWVKQRPGQGLEWIGMIHPSDSETRLNQKFKDKATLTVDKSSSTAYMQLSSPTSEDSAVYYCARWGDHDDAMDF VL: DIVLTQSPASLSASVGESVTITCRPSENIYGYFAWYQQRQGKSPQLLVYNAKTLAEGVPSRFSGSGSGTHFSLKINSLQPEDFGTYYCQHHYGTPFT | 23.4 | 0.00127 | 54400
14 | Anti-CD5 antibody 17 (7H7) (antibody, human IgG1, V domains shown, also called Ab17; Clone 17) VH: EVQLVESGPGLVQPSQSLSITCTVSGFSLTNYDVHWVRQSPGKGLEWLGVIWNYGNTDYNAAFISRLSIRKDSSKSQVFFTMSSLQTPDTAIYYCARNHGDGYYNWYFDV VL: NIVLTQSPSSLSESLGGKVTITCKASQDINKYIAWYQYKPGKGPRLLIHYTSTLQPGIPSRFSGSGSGRDYSFSISNLEPEDIATYYCLQYDNLWT | 0.164 | 8.45e-05 | 515000
